Test results from patent US20160257958.

biological target: T1, human hepcidin-25 (L-peptide) (Homo sapiens) (UniProt P81172); test: SPR; settings: L-RNA; 5'-40 kDa PEG; 37 C, 1 mM Mg, 1 mM Ca
T1 sequence: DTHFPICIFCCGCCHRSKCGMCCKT

Sequence	Kd
GCGCCGUAUGGGAUUAAGUAAAUGAGGAGUUGGAGGAAGGGCGC [238-D4-008-5'-PEG (NOX-H94)]	0.64 nM
GCUGUGUAAAGUAGAGGACAAUUGUCGGCGUGAUAGUGCCACAGC [229-B1-002-5'-PEG]	1.92 nM
GGCCGGACAGCCGGGGGACACCAUAUACAGACUACGAUACGGCC [238-C4-006-5'-PEG]	0.76 nM
GCACUCGUAAAGUAGAGGGACCCAGUCCGGCGUGAUAGUGCCGAGUGC [223-C5-001-5'-PEG]	4.44 nM
GCGCGCGUAUGGGAUUAAGUAAAUGAGGAGUUGGAGGAAGGCGCGC [238-D4-002-5'-PEG]	0.53 nM

same assay, conditions: L-RNA; 37 C, 1 mM Mg, 1 mM Ca

Sequence	Kd
GCACUCGUAAAGUAGAGGGACCCAGUCCGGCGUGAUAGUGCCGAGUGC [223-C5-001 (L-RNA)]	2.7 nM
GCUGUGUAAAGUAGAGGACAAUUGUCGGCGUGAUAGUGCCACAGC [229-B1-002 (L-RNA)]	1.47 nM
AGCGUGUCGUAUGGGAUUAAGUAAAUGAGGAGUUGGAGGAAGGGCAUGCU [238-D4-001 (L-RNA)]	0.51 nM
AGGCUCGGACAGCCGGGGGACACCAUAUACAGACUACGAUACGGGCCU [238-C4-001 (L-RNA)]	0.9 nM

same assay, conditions: L-RNA; 37 C, data not shown

Sequence	Kd
CGUGUGUAAAGUAGAGGACAAUUGUCGGCGUGAUAGUGCCACACG [229-B1-001 (L-RNA)]	1.25 nM

biological target: T2, biotinylated human D-hepcidin-25 (mirror-image peptide) (Homo sapiens) (UniProt P81172); test: SPR; settings: 37 C, 1 mM Mg, 1 mM Ca
T2 sequence: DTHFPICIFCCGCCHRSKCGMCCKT

Sequence	Kd
GCACUCGUAAAGUAGAGGGACCCAGUCCGGCGUGAUAGUGCCGAGUGC [223-C5-001 (D-RNA)]	1.2 nM
CGUGUGUAAAGUAGAGGACAAUUGUCGGCGUGAUAGUGCCACACG [229-B1-001 (D-RNA)]	0.5 nM
